# According to US8691189B2, “Method of colorectal cancer detection by using radiolabeled anti-GRP78 peptide” (Institute of Nuclear Energy Research, Atomic Energy Council, priority 2011, dated 2014):
# Where no end group is shown, it is not given here.
# Target: T1, GRP78 (Mus musculus, UniProt P20029)
# T1 construct: endogenous in cells; CT26 named for the mouse model
# Test: Immunofluorescence cell staining of colorectal cancer cells
# Format: cell-based
# Conditions: FITC-labeled, 1:50, 4° C. overnight, FIG. 3
# Protocol: (A) Immunofluorescence cell staining 4: • (A1) Cell culturing 40: • I. A few colorectal cancer cells are cultured in a RPMI1640 of 10% fetal bovine serum (FBS) (containing 2 mM glutamine, penicillin (100 U/ml) and streptomycin ([…])). • II. The cells are put in a culture chamber having 5% CO2 at 37° C. • III. After being fully grown, the cells adhered on culture dishes are reacted with 0.05% Trypsin and are washed down. • IV. The cells washed down are further washed with a Hank's balanced salts solution. • V. The washed cells are obtained at a number about 1×10^4 to be put into a chamber slide having eight individual sections for further culturing. • VI. […] The sliced tissues are washed with a normal saline solution for 3 times each time for 5 minutes. • (A4) Fluorescence microscopy observation 43: • I. The sliced tissues are fully dried for observation with a microscope. • II. […] A fluorescence image is captured with a digital camera device. • IV. An image of the cells is captured under a visible light as a reference to the fluorescence image.
# (A) Fluorescence immunoassay 7: • (A1) Fluorescence immunoassay of colorectal cancer 71: • As modern studies show, colorectal cancer cells and tissues show a lot of GRP78. […] As a result, the anti-GRP78 peptide is able to detect expression of GRP78 in colorectal cancer cell. • (A2) Fluorescence immunoassay of colorectal cancer tissue 72: […]
# T1 sequence (P20029 20-655): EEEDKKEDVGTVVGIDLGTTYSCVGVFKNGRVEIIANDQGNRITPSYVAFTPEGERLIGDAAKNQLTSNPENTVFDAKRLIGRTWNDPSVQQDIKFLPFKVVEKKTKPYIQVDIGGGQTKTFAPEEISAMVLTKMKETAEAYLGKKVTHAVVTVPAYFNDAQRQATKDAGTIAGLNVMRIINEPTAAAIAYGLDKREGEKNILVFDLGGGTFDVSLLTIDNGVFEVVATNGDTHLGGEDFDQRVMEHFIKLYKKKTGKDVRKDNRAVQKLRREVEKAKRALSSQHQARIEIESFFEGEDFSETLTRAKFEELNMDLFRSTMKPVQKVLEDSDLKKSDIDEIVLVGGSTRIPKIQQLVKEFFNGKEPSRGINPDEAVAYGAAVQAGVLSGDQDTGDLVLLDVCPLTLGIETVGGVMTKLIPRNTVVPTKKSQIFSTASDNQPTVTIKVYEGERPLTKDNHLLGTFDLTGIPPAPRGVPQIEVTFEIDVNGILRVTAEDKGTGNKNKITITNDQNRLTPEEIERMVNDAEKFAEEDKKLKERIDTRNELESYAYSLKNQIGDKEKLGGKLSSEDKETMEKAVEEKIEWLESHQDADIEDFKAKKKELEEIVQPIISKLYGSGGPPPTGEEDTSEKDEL
row,Substance,fluorescence expression (detection of GRP78 expression in colorectal cancer cell)
1,YIFPYIELC [anti-GRP78 peptide],obvious fluorescence expression
2,fluorescein isothiocyanate [pure FITC],no fluorescence expression
